Laboratory results taken from publication PMC9628480, “Discovery and structural characterization of chicoric acid as a SARS-CoV-2 nucleocapsid protein ligand and RNA binding disruptor”.

Molecular target: SARS-CoV-2 nucleocapsid (N) protein, full-length (SARS-CoV-2 (protein amplified from …, UniProt A0A6B9VLF5 1-419))
Assay: fluorescence polarization
Conditions: protein: recombinant; tags: 6xHis (pET28a-TEV), not cleaved; chain copies: 2; label: 5'-FITC; hairpin

Binder CACUCACUGUCAAAAAAGAUGGUAGAGU (structured_RNA) [RNA2 (UUUUUU to AAAAAA)] has a Kd of 498 ± 43.2 nM.
